# B1: Transcription factor p65 (Mus musculus), Q04207 (parent)
# chain: MDDLFPLIFPSEPAQASGPYVEIIEQPKQRGMRFRYKCEGRSAGSIPGERSTDTTKTHPTIKINGYTGPGTVRISLVTKDPPHRPHPHELVGKDCRDGYYEADLCPDRSIHSFQNLGIQCVKKRDLEQAISQRIQTNNNPFHVPIEEQRGDYDLNAVRLCFQVTVRDPAGRPLLLTPVLSHPIFDNRAPNTAELKICRVNRNSGSCLGGDEIFLLCDKVQKEDIEVYFTGPGWEARGSFSQADVHRQVAIVFRTPPYADPSLQAPVRVSMQLRRPSDRELSEPMEFQYLPDTDDRHRIEEKRKRTYETFKSIMKKSPFNGPTEPRPPTRRIAVPTRNSTSVPKPAPQPYTFPASLSTINFDEFSPMLLPSGQISNQALALAPSSAPVLAQTMVPSSAMVPLAQPPAPAPVLTPGPPQSLSAPVPKSTQAGEGTLSEALLHLQFDADEDLGALLGNSTDPGVFTDLASVDNSEFQQLLNQGVSMSHSTAEPMLMEYPEAITRLVTGSQRPPDPAPTPLGTSGLPNGLSGDEDFSSIADMDFSALLSQISS
# How the values were obtained:
# cbp_mouse Crebbp, P45481 [1] = variants of: B1; conditions: with cbp_mouse Crebbp
# Sequence of cbp_mouse Crebbp, P45481 (P45481 whole entry): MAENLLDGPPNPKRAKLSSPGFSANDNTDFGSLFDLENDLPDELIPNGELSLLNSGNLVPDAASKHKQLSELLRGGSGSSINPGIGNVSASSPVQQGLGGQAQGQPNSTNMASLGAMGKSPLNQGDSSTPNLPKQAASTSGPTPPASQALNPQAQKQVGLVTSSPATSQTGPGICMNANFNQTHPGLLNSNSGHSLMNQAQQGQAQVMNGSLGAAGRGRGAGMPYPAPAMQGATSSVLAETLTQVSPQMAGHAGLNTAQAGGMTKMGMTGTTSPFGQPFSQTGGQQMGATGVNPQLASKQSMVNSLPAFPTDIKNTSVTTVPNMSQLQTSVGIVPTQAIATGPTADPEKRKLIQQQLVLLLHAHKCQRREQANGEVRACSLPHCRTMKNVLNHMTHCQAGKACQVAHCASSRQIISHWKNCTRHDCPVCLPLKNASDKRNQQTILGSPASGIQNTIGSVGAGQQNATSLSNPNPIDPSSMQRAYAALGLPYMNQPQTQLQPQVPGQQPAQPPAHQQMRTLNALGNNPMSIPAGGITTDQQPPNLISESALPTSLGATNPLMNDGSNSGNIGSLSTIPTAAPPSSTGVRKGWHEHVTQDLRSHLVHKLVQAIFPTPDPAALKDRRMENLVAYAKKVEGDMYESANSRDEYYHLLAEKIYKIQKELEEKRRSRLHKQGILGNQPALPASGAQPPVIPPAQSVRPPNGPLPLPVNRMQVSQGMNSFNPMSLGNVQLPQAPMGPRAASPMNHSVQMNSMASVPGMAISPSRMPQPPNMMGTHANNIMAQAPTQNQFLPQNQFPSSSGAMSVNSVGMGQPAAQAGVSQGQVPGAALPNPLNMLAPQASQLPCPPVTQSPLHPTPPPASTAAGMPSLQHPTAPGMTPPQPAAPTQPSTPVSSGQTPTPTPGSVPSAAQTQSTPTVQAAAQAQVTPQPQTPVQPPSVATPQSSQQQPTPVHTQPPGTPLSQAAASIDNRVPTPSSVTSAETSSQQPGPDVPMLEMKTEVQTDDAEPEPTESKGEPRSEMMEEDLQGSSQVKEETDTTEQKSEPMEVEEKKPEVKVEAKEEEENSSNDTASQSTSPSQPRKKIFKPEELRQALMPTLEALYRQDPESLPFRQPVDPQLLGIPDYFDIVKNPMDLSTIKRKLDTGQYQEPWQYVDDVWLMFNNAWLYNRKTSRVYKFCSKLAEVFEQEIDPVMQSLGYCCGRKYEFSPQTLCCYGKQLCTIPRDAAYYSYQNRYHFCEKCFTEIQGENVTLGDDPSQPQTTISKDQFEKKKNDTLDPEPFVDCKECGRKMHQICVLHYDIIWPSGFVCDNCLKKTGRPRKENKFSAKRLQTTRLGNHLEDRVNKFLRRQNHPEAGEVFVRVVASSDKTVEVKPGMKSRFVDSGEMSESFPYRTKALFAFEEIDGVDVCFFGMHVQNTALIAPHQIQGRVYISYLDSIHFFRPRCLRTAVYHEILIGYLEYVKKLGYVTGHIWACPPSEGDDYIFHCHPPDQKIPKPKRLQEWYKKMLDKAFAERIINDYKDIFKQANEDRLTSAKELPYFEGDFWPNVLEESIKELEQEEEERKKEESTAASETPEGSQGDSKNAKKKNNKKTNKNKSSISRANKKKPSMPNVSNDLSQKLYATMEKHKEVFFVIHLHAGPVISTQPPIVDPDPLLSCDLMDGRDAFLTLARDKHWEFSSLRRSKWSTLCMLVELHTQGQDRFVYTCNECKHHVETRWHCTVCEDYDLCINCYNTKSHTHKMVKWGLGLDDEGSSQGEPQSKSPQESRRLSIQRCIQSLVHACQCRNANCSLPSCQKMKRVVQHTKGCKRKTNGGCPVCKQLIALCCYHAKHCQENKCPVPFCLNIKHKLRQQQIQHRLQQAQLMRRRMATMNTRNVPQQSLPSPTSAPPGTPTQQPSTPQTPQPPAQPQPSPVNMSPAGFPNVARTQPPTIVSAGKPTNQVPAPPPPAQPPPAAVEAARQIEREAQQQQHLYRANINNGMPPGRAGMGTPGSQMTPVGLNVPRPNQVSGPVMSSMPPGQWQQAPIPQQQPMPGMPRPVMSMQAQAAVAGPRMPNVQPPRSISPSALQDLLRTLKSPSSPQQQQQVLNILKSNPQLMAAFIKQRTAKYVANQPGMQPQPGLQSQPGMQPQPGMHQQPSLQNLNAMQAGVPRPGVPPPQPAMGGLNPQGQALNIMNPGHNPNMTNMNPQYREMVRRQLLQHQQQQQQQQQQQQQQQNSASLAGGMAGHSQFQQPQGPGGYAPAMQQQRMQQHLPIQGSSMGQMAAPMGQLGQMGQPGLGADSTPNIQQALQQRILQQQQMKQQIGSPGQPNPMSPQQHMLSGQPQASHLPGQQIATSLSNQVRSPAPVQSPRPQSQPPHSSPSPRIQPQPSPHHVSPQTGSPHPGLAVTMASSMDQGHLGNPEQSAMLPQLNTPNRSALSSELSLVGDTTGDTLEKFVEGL
# cbp_mouse Crebbp, P45481 [2] = variants of: B1; conditions: with cbp_mouse Crebbp; remark: listed apart in the source
# cbp_mouse Crebbp, P45481 [3] = variants of: B1; conditions: with cbp_mouse Crebbp; remark: listed apart in the source
# [4] = variants of: B1; conditions: with ep300_mouse Ep300, B2RWS6
# Sequence of ep300_mouse Ep300, B2RWS6 (B2RWS6 whole entry): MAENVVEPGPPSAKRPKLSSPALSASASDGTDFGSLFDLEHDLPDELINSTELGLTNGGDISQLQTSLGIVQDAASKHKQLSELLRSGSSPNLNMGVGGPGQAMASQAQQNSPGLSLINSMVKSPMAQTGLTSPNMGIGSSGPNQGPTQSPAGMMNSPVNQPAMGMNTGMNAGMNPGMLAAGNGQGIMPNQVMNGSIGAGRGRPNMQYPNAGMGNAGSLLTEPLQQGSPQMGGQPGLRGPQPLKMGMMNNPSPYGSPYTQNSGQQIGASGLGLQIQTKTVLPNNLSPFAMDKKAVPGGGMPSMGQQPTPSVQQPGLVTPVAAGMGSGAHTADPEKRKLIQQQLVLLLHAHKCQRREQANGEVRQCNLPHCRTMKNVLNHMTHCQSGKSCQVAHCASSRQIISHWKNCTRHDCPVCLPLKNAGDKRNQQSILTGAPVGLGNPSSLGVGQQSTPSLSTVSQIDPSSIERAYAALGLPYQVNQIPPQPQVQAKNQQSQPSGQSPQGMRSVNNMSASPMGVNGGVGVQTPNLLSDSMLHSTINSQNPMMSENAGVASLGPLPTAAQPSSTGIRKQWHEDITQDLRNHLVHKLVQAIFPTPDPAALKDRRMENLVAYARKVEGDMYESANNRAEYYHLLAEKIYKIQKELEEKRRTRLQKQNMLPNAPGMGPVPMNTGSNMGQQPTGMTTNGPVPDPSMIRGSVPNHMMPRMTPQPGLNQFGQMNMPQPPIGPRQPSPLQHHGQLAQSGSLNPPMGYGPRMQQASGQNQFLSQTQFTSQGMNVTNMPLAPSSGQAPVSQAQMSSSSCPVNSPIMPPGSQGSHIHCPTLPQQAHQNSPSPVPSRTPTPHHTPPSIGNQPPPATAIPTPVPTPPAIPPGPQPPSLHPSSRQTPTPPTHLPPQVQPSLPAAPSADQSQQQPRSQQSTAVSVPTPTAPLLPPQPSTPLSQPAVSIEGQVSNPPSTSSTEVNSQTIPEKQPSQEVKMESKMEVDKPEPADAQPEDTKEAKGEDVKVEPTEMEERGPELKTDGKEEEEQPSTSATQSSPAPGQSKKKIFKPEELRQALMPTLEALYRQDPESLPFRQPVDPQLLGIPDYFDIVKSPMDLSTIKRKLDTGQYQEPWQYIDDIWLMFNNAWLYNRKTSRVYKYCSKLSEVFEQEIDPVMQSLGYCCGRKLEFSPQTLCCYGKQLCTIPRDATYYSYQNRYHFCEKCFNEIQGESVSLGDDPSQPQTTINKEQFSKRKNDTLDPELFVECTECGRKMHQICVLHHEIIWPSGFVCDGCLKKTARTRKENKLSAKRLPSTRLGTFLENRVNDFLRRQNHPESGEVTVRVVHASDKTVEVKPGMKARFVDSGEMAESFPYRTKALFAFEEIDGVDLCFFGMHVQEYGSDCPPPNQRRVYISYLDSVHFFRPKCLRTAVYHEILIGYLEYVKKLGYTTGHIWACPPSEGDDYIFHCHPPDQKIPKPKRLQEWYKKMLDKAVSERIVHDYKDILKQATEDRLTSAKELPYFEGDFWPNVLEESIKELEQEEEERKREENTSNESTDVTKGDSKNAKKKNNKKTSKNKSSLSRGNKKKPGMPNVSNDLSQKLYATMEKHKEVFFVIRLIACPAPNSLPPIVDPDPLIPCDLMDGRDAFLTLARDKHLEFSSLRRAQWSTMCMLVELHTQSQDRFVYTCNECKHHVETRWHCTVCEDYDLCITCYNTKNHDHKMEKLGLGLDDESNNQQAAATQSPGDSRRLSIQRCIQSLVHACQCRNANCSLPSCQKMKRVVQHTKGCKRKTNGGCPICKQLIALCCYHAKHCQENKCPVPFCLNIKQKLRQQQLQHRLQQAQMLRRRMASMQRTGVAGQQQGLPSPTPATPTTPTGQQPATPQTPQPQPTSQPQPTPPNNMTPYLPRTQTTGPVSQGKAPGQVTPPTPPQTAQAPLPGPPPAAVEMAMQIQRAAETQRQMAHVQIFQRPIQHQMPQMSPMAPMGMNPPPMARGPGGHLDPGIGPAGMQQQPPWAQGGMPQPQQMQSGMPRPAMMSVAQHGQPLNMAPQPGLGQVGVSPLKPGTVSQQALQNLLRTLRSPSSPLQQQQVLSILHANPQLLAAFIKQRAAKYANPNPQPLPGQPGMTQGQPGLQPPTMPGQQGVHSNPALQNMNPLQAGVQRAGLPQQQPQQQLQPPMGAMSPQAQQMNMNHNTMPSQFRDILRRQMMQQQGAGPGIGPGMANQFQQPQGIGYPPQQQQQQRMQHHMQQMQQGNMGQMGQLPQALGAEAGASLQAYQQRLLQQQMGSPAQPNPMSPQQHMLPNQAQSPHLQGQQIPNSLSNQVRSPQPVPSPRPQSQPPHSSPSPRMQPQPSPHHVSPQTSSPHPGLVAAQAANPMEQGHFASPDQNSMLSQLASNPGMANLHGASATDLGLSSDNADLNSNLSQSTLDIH
# cbp_mouse Crebbp, P45481 [5] = variants of: B1; conditions: with cbp_mouse Crebbp; remark: listed apart in the source
"effect of a mutation on the interaction (cbp_mouse Crebbp, P45481 [1])","effect of a mutation on the interaction (cbp_mouse Crebbp, P45481 [2])","effect of a mutation on the interaction (cbp_mouse Crebbp, P45481 [3])",effect of a mutation on the interaction [4],"effect of a mutation on the interaction (cbp_mouse Crebbp, P45481 [5])",Variant
disrupting interaction strength,decreasing interaction strength,–,–,–,L449A;S467A;F473A
–,–,disrupting interaction strength,–,–,F473A
disrupting interaction strength,decreasing interaction strength,disrupting interaction strength,decreasing interaction strength,–,L449A;F473A
–,decreasing interaction strength,–,decreasing interaction strength,–,S276A
–,–,disrupting interaction strength,–,decreasing interaction strength,L465A
–,–,disrupting interaction strength,–,decreasing interaction strength,L449A
–,decreasing interaction strength,–,decreasing interaction strength,–,S467A
